Non-standard residues stand in square brackets, D forms with d. *: point of attachment. X11 = ((1S)-1-carboxy-3-methylbutyl)carbamoyl, CC(C)C[C@H](NC(=O)*)C(=O)O; X10 = Tetrahydro‑2H‑pyran‑4‑yl‑carbamoyl, O=C(NC1CCOCC1)*; Phe(3-Me) = Cc1cccc(C[C@H](N)C(=O)O)c1; Phe(2-Me) = Cc1ccccc1C[C@H](N)C(=O)O; tBuAla = CC(C)(C)C[C@H](N)C(=O)O; Cha = N[C@@H](CC1CCCCC1)C(=O)O; Aib = CC(C)(N)C(=O)O; Bz = O=C(c1ccccc1)*
T1: human Y2 receptor (human, UniProt P49146 1-381)
T1 sequence (looked up): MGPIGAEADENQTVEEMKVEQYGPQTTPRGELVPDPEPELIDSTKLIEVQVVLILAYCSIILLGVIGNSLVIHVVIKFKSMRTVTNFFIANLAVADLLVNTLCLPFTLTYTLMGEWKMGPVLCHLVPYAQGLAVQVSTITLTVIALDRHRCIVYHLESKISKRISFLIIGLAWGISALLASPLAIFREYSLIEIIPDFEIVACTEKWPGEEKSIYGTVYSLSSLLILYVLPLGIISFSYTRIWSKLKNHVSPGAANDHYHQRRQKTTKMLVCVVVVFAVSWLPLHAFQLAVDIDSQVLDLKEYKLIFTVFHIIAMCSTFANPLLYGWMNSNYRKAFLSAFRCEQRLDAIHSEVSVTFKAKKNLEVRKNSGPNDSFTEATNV

B1: Benzoyl-[Ser26, Cha27,28,36, Aib31]-PYY(25-36) (peptide)
peptide: Bz-RS[Cha][Cha]NL[Aib]TRQR[Cha]-NH2
SMILES: CC(C)C[C@H](NC(=O)[C@H](CC(N)=O)NC(=O)[C@H](CC1CCCCC1)NC(=O)[C@H](CC1CCCCC1)NC(=O)[C@H](CO)NC(=O)[C@H](CCCNC(=N)N)NC(=O)c1ccccc1)C(=O)NC(C)(C)C(=O)N[C@H](C(=O)N[C@@H](CCCNC(=N)N)C(=O)N[C@@H](CCC(N)=O)C(=O)N[C@@H](CCCNC(=N)N)C(=O)N[C@@H](CC1CCCCC1)C(N)=O)[C@@H](C)O
B2: Tetrahydro-2H-pyran-4-yl-carbamoyl-[D-Pro24, Cha27,36, Leu(Me)28, Lys30, Aib31]-PYY(23-36) (peptide)
peptide: X10-S[dP]RH[Cha][tBuAla]NK[Aib]TRQR[Cha]-NH2
SMILES: C[C@@H](O)[C@H](NC(=O)C(C)(C)NC(=O)[C@H](CCCCN)NC(=O)[C@H](CC(N)=O)NC(=O)[C@H](CC(C)(C)C)NC(=O)[C@H](CC1CCCCC1)NC(=O)[C@H](Cc1c[nH]cn1)NC(=O)[C@H](CCCNC(=N)N)NC(=O)[C@H]1CCCN1C(=O)[C@H](CO)NC(=O)NC1CCOCC1)C(=O)N[C@@H](CCCNC(=N)N)C(=O)N[C@@H](CCC(N)=O)C(=O)N[C@@H](CCCNC(=N)N)C(=O)N[C@@H](CC1CCCCC1)C(N)=O
notes: also called compound No. 229
B3: Ac-[D-Pro24, Trp26, Cha27,36, Aib28,31, Lys30]-PYY(23-36) (peptide)
peptide: Ac-S[dP]RW[Cha][Aib]NK[Aib]TRQR[Cha]-NH2
SMILES: CC(=O)N[C@@H](CO)C(=O)N1CCC[C@@H]1C(=O)N[C@@H](CCCNC(=N)N)C(=O)N[C@@H](Cc1c[nH]c2ccccc12)C(=O)N[C@@H](CC1CCCCC1)C(=O)NC(C)(C)C(=O)N[C@@H](CC(N)=O)C(=O)N[C@@H](CCCCN)C(=O)NC(C)(C)C(=O)N[C@H](C(=O)N[C@@H](CCCNC(=N)N)C(=O)N[C@@H](CCC(N)=O)C(=O)N[C@@H](CCCNC(=N)N)C(=O)N[C@@H](CC1CCCCC1)C(N)=O)[C@@H](C)O
notes: also called compound No. 347
B4: Ac-[D-Pro24, Tyr26, Cha27,36, Aib28,31, Lys30]-PYY(23-36) (peptide)
peptide: Ac-S[dP]RY[Cha][Aib]NK[Aib]TRQR[Cha]-NH2
SMILES: CC(=O)N[C@@H](CO)C(=O)N1CCC[C@@H]1C(=O)N[C@@H](CCCNC(=N)N)C(=O)N[C@@H](Cc1ccc(O)cc1)C(=O)N[C@@H](CC1CCCCC1)C(=O)NC(C)(C)C(=O)N[C@@H](CC(N)=O)C(=O)N[C@@H](CCCCN)C(=O)NC(C)(C)C(=O)N[C@H](C(=O)N[C@@H](CCCNC(=N)N)C(=O)N[C@@H](CCC(N)=O)C(=O)N[C@@H](CCCNC(=N)N)C(=O)N[C@@H](CC1CCCCC1)C(N)=O)[C@@H](C)O
notes: also called compound No. 346
B5: Ac-[Glu23, D-Pro24, Cha27,28, Lys30, Aib31, Phe(2Me)36]-PYY(23-36) (peptide)
peptide: Ac-E[dP]RH[Cha][Cha]NK[Aib]TRQR[Phe(2-Me)]-NH2
SMILES: CC(=O)N[C@@H](CCC(=O)O)C(=O)N1CCC[C@@H]1C(=O)N[C@@H](CCCNC(=N)N)C(=O)N[C@@H](Cc1c[nH]cn1)C(=O)N[C@@H](CC1CCCCC1)C(=O)N[C@@H](CC1CCCCC1)C(=O)N[C@@H](CC(N)=O)C(=O)N[C@@H](CCCCN)C(=O)NC(C)(C)C(=O)N[C@H](C(=O)N[C@@H](CCCNC(=N)N)C(=O)N[C@@H](CCC(N)=O)C(=O)N[C@@H](CCCNC(=N)N)C(=O)N[C@@H](Cc1ccccc1C)C(N)=O)[C@@H](C)O
notes: also called compound No. 256
B6: [(1S)-1-carboxy-3-methylbutyl]carbamoyl-[Glu23, D-Pro24, Cha27,28,36, Lys30, Aib31]-PYY(23-36) (peptide)
peptide: X11-E[dP]RH[Cha][Cha]NK[Aib]TRQR[Cha]-NH2
SMILES: CC(C)C[C@H](NC(=O)N[C@@H](CCC(=O)O)C(=O)N1CCC[C@@H]1C(=O)N[C@@H](CCCNC(=N)N)C(=O)N[C@@H](Cc1c[nH]cn1)C(=O)N[C@@H](CC1CCCCC1)C(=O)N[C@@H](CC1CCCCC1)C(=O)N[C@@H](CC(N)=O)C(=O)N[C@@H](CCCCN)C(=O)NC(C)(C)C(=O)N[C@H](C(=O)N[C@@H](CCCNC(=N)N)C(=O)N[C@@H](CCC(N)=O)C(=O)N[C@@H](CCCNC(=N)N)C(=O)N[C@@H](CC1CCCCC1)C(N)=O)[C@@H](C)O)C(=O)O
notes: also called compound No. 254
B7: Ac-[D-Pro24, Gln26, Cha27,36, Aib28,31, Lys30]-PYY(23-36) (peptide)
peptide: Ac-S[dP]RQ[Cha][Aib]NK[Aib]TRQR[Cha]-NH2
SMILES: CC(=O)N[C@@H](CO)C(=O)N1CCC[C@@H]1C(=O)N[C@@H](CCCNC(=N)N)C(=O)N[C@@H](CCC(N)=O)C(=O)N[C@@H](CC1CCCCC1)C(=O)NC(C)(C)C(=O)N[C@@H](CC(N)=O)C(=O)N[C@@H](CCCCN)C(=O)NC(C)(C)C(=O)N[C@H](C(=O)N[C@@H](CCCNC(=N)N)C(=O)N[C@@H](CCC(N)=O)C(=O)N[C@@H](CCCNC(=N)N)C(=O)N[C@@H](CC1CCCCC1)C(N)=O)[C@@H](C)O
notes: also called compound No. 221
B8: Ac-[Glu23, D-Pro24, Cha27,28, Lys30, Aib31, Phe(3Me)36]-PYY(23-36) (peptide)
peptide: Ac-E[dP]RH[Cha][Cha]NK[Aib]TRQR[Phe(3-Me)]-NH2
SMILES: CC(=O)N[C@@H](CCC(=O)O)C(=O)N1CCC[C@@H]1C(=O)N[C@@H](CCCNC(=N)N)C(=O)N[C@@H](Cc1c[nH]cn1)C(=O)N[C@@H](CC1CCCCC1)C(=O)N[C@@H](CC1CCCCC1)C(=O)N[C@@H](CC(N)=O)C(=O)N[C@@H](CCCCN)C(=O)NC(C)(C)C(=O)N[C@H](C(=O)N[C@@H](CCCNC(=N)N)C(=O)N[C@@H](CCC(N)=O)C(=O)N[C@@H](CCCNC(=N)N)C(=O)N[C@@H](Cc1cccc(C)c1)C(N)=O)[C@@H](C)O
notes: also called compound No. 259
B9: Ac-[D-Pro24, Phe26, Cha27,36, Aib28,31, Lys30]-PYY(23-36) (peptide)
peptide: Ac-S[dP]RF[Cha][Aib]NK[Aib]TRQR[Cha]-NH2
SMILES: CC(=O)N[C@@H](CO)C(=O)N1CCC[C@@H]1C(=O)N[C@@H](CCCNC(=N)N)C(=O)N[C@@H](Cc1ccccc1)C(=O)N[C@@H](CC1CCCCC1)C(=O)NC(C)(C)C(=O)N[C@@H](CC(N)=O)C(=O)N[C@@H](CCCCN)C(=O)NC(C)(C)C(=O)N[C@H](C(=O)N[C@@H](CCCNC(=N)N)C(=O)N[C@@H](CCC(N)=O)C(=O)N[C@@H](CCCNC(=N)N)C(=O)N[C@@H](CC1CCCCC1)C(N)=O)[C@@H](C)O
notes: also called compound No. 345
B10: Tetrahydro-2H-pyran-4-yl-carbamoyl-[Glu23, D-Pro24, Cha27,28,36, Lys30, Aib31]-PYY(23-36) (peptide)
peptide: X10-E[dP]RH[Cha][Cha]NK[Aib]TRQR[Cha]-NH2
SMILES: C[C@@H](O)[C@H](NC(=O)C(C)(C)NC(=O)[C@H](CCCCN)NC(=O)[C@H](CC(N)=O)NC(=O)[C@H](CC1CCCCC1)NC(=O)[C@H](CC1CCCCC1)NC(=O)[C@H](Cc1c[nH]cn1)NC(=O)[C@H](CCCNC(=N)N)NC(=O)[C@H]1CCCN1C(=O)[C@H](CCC(=O)O)NC(=O)NC1CCOCC1)C(=O)N[C@@H](CCCNC(=N)N)C(=O)N[C@@H](CCC(N)=O)C(=O)N[C@@H](CCCNC(=N)N)C(=O)N[C@@H](CC1CCCCC1)C(N)=O
notes: also called compound No. 230
B11: Ac-[D-Pro24, Cha27,28, Aib31, DL-Phe(2,6-Me2)36]-PYY(23-36) (peptide)
peptide: Ac-S[dP]RH[Cha][Cha]NL[Aib]TRQRX-NH2
modifications: not fully specified (residue 14); printed as Ac-Ser-D-Pro-Arg-His-Cha-Cha-Asn-Leu-Aib-Thr-Arg-Gln-Arg-DL-Phe(2,6-Me2)-NH2; also: residue 36 is DL racemic
notes: residue 36 is a DL racemate; also called compound No. 201

Key:
[1] = molecular target: human Y2 receptor (human) (UniProt P49146); test: cell-based or functional assay
[2] = molecular target: human Y2 receptor (human) (UniProt P49146); test: RBA: [125I]-PYY displacement, hY2R/CHO membranes
human Y2 receptor [3] = molecular target: T1, human Y2 receptor; test: cell-based or functional assay
human Y2 receptor [4] = molecular target: T1, human Y2 receptor; test: RBA: displacement of [125I]-PYY from hY2R/CHO membranes
Protocol: After incubation at room temperature for 60 minutes, the mixture was filtered through the cell harvester FilterMate (PerkinElmer) using UniFilter-96 GF/C treated with polyethylenimine (PEI) solution (20 mM Tris, 0.3% PEI, pH 7.4), and the filter was washed 3 times with a filtering buffer (50 mM Tris, 5 mM MgCl₂, 150 mM NaCl, 0.03% NaN₃, 0.05% CHAPS, pH 7.4). Thereafter, UniFilter-96 GF/C was dried in a mechanical drier for 1 hour, 15 μl of the liquid scintillator MicroScint O (PerkinElmer) was added to each well, and a measurement was taken using TopCount (PerkinElmer). The data obtained were analyzed using Prism to calculate the IC₅₀ value.

Binder	GBA EC50 Ratio (vs PYY(3-36)), [35S]GTPγS [1]	IC50 Ratio (vs PYY(3-36)) [2]	GBA EC50 Ratio ([35S]GTPγS binding) (human Y2 receptor [3])	IC50 Ratio (human Y2 receptor [4])
B1	6	13		
B2			0.5 EC50 compound/EC50 PYY(3-36)	0.45 IC50 compound/IC50 PYY(3-36)
B3			1.3 EC50 compound/EC50 PYY(3-36)	0.76 IC50 compound/IC50 PYY(3-36)
B4			1.3 EC50 compound/EC50 PYY(3-36)	1 IC50 compound/IC50 PYY(3-36)
B5			1.2 EC50 compound/EC50 PYY(3-36)	1.7 IC50 compound/IC50 PYY(3-36)
B6			1.5 EC50 compound/EC50 PYY(3-36)	2.8 IC50 compound/IC50 PYY(3-36)
B7			1.4 EC50 compound/EC50 PYY(3-36)	3.1 IC50 compound/IC50 PYY(3-36)
B8			0.93 EC50 compound/EC50 PYY(3-36)	1.1 IC50 compound/IC50 PYY(3-36)
B9			1.4 EC50 compound/EC50 PYY(3-36)	1.1 IC50 compound/IC50 PYY(3-36)
B10			2.5 EC50 compound/EC50 PYY(3-36)	0.89 IC50 compound/IC50 PYY(3-36)
B11			2 EC50 compound/EC50 PYY(3-36)	1.6 IC50 compound/IC50 PYY(3-36)
